Results: IntAct's records for PubMed 12796778

B1: Nuclear distribution protein nudE-like 1 (Mus musculus), Q9ERR1 (parent)
chain: MDGEDIPDFSSLKEETAYWKELSLKYKQSFQEARDELVEFQEGSRELEAELEAQLVQAEQRNRDLQADNQRLKYEVEALKEKLEHQYAQSYKQVSVLEDDLSQTRAIKEQLHKYVRELEQANDDLERAKRATIVSLEDFEQRLNQAIERNAFLESELDEKESLLVSVQRLKDEARDLRQELAVRERQQEVTRKSAPSSPTLDCEKMDSAVQASLSLPATPVGKGTENSFPSPKAIPNGFGTSPLTPSARISALNIVGDLLRKVGALESKLAACRNFAKDQASRKSYVPGSVNCGVMNSNGPECPRSGRATFFHKGAVNGFDPAPPPPGLGSSRPSSAPGMLPLSV

Variants of: B1
Details: with 1433e_mouse Ywhae

| Variant | effect of a mutation on the interaction |
| --- | --- |
| MDGEDIPDFSSLKEETAYWKELSLKYKQSFQEARDELVEFQEGSRELEAELEAQLVQAEQRNRDLQADNQRLKYEVEALKEKLEHQYAQSYKQVSVLEDDLSQTRAIKEQLHKYVRELEQANDDLERAKRATIVSLEDFEQRLNQAIERNAFLESELDEKESLLVSVQRLKDEARDLRQELAVRERQQEVTRKSAPSAPTLDCEKMDSAVQASLSLPATPVGKGTENSFPSPKAIPNGFGTSPLTPSARISALNIVGDLLRKVGALESKLAACRNFAKDQASRKSYVPGSVNCGVMNSNGPECPRSGRATFFHKGAVNGFDPAPPPPGLGSSRPSSAPGMLPLSV [S198A] | decreasing interaction strength |
| MDGEDIPDFSSLKEETAYWKELSLKYKQSFQEARDELVEFQEGSRELEAELEAQLVQAEQRNRDLQADNQRLKYEVEALKEKLEHQYAQSYKQVSVLEDDLSQTRAIKEQLHKYVRELEQANDDLERAKRATIVSLEDFEQRLNQAIERNAFLESELDEKESLLVSVQRLKDEARDLRQELAVRERQQEVTRKSAPSAPTLDCEKMDSAVQASLSLPAAPVGKGTENSFPAPKAIPNGFGTSPLTPSARISALNIVGDLLRKVGALESKLAACRNFAKDQASRKSYVPGSVNCGVMNSNGPECPRSGRATFFHKGAVNGFDPAPPPPGLGSSRPSSAPGMLPLSV [S198A;T219A;S231A] | disrupting interaction strength |
| MDGEDIPDFSSLKEETAYWKELSLKYKQSFQEARDELVEFQEGSRELEAELEAQLVQAEQRNRDLQADNQRLKYEVEALKEKLEHQYAQSYKQVSVLEDDLSQTRAIKEQLHKYVRELEQANDDLERAKRATIVSLEDFEQRLNQAIERNAFLESELDEKESLLVSVQRLKDEARDLRQELAVRERQQEVTRKSAPSSPTLDCEKMDSAVQASLSLPAAPVGKGTENSFPSPKAIPNGFGTSPLTPSARISALNIVGDLLRKVGALESKLAACRNFAKDQASRKSYVPGSVNCGVMNSNGPECPRSGRATFFHKGAVNGFDPAPPPPGLGSSRPSSAPGMLPLSV [T219A] | decreasing interaction strength |
| MDGEDIPDFSSLKEETAYWKELSLKYKQSFQEARDELVEFQEGSRELEAELEAQLVQAEQRNRDLQADNQRLKYEVEALKEKLEHQYAQSYKQVSVLEDDLSQTRAIKEQLHKYVRELEQANDDLERAKRATIVSLEDFEQRLNQAIERNAFLESELDEKESLLVSVQRLKDEARDLRQELAVRERQQEVTRKSAPSSPTLDCEKMDSAVQASLSLPATPVGKGTENSFPAPKAIPNGFGTSPLTPSARISALNIVGDLLRKVGALESKLAACRNFAKDQASRKSYVPGSVNCGVMNSNGPECPRSGRATFFHKGAVNGFDPAPPPPGLGSSRPSSAPGMLPLSV [S231A] | decreasing interaction strength |
